Where a chain is given by its changes, count along the chain named. One block for each binder: values may come before it.
Legend:
human 4-1BB on cells [1] = target: T1, human 4-1BB on cells (human, UniProt Q07011 18-255); test: FACS on transfected cells
T1 construct: Expressed on stably transfected HEK293/HEK293T cells, transduced 300-19 cells or PHA stimulated human PBMC; also called h41BB; hu4-1BB

CD40 on 300.19 cells = target: T2, CD40 on 300.19 cells (UniProt P25942 21-277, limits assumed); test: FACS on 300.19 cells expressing CD40
T2 construct: whole, on cells; also called TNFRSF5; 300.19 CD40

OX-40 on 300.19 cells = target: T3, OX-40 on 300.19 cells (UniProt P43489 29-277, limits assumed); test: FACS on 300.19 cells expressing OX-40
T3 construct: whole, on cells; also called CD134; TNFRSF4
T3 sequence (looked up): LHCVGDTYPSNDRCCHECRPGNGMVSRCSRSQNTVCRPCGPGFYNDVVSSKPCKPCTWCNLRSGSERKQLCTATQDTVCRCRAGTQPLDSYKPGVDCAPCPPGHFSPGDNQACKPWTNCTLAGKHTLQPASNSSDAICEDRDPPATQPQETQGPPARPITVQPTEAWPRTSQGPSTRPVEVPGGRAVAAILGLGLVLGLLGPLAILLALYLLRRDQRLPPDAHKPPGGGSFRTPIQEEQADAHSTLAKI

[2] = target: T4, Recombinant human 4-1BB/Fc Chimera (R&D Systems #838-4B) (human, UniProt Q07011 24-186); test: ELISA on coated human 4-1BB IgG1Fc chimera
T4 construct: Bought protein; also called Human 4-1BB IgG1Fc chimera; not shown: Factor Xa-cleavable junction, human IgG1 Fc and 6xHistidine tag of the bought chimera

[3] = target: T4, Recombinant human 4-1BB/Fc Chimera (R&D …); test: ELISA on directly coated human 4-1BB/Fc, IgG1
human 4-1BB on cells [4] = target: T1, human 4-1BB on cells; test: FACS on HEK293T cells expressing human 4-1BB, IgG1
Hu41BB N&E = target: T5, Hu41BB N&E (human, UniProt Q07011 18-255); test: FACS, 100 nM antibody, transduced 300-19 cell pools
T5 construct: Human-to-dog mutant of the human 4-1BB extracellular domain, expressed on transduced 300-19 cells
T5 chain: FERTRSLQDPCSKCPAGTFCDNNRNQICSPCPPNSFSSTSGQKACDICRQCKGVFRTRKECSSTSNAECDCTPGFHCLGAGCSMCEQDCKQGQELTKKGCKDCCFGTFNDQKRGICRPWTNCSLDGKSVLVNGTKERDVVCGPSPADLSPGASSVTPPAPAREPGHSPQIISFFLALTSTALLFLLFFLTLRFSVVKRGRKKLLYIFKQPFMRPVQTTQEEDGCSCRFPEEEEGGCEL

Hu41BB N&E.1 = target: T6, Hu41BB N&E.1 (human, UniProt Q07011 18-255); test: as above
T6 construct: Human-to-dog mutant of the human 4-1BB extracellular domain, expressed on transduced 300-19 cells
T6 chain: T5 chain with D21G, N22K, R24K, S29I

Hu41BB N&E.5 = target: T7, Hu41BB N&E.5 (human, UniProt Q07011 18-255); test: as above
T7 construct: Human-to-dog mutant of the human 4-1BB extracellular domain, expressed on transduced 300-19 cells; also called 4-1BB Mutant N&E.5
T7 chain: T5 chain with K13N, T39A, S40G, K43R, A44T, K98Q, C104R, R117Q, R137S, V139A

Hu41BB N&E.6 = target: T8, Hu41BB N&E.6 (human, UniProt Q07011 18-255); test: as above
T8 construct: Human-to-dog mutant of the human 4-1BB extracellular domain, expressed on transduced 300-19 cells
T8 chain: T5 chain with K13N, T39A, S40G, K43R, A44T, S144A, P145S, D147G, L148F, A152T

[5] = target: T4, Recombinant human 4-1BB/Fc Chimera (R&D …); test: ligand competition ELISA, 4-1BB_IgG1Fc to plate-bound 4-1BBL (competitor 4-1BBL)
[6] = target: T4, Recombinant human 4-1BB/Fc Chimera (R&D …); test: ELISA on directly coated human 4-1BB/Fc
human 4-1BB on cells [7] = target: T1, human 4-1BB on cells; test: FACS on HEK293 cells expressing human 4-1BB
[8] = target: T9, human 4-1BB (recombinant antigen, construct not stated) (human, UniProt Q07011 24-186); test: SPR (Biacore 3000), Fab analyte on amine-coupled human 4-1BB
T9 construct: It may be the 4-1BB/Fc chimera; also called CD137/HUMAN 4-1BB; unlabeled human 4-1BB

Hu41BB N&E.3 = target: T10, Hu41BB N&E.3 (human, UniProt Q07011 18-255); test: FACS, 100 nM antibody, transduced 300-19 cell pools
T10 construct: Human-to-dog mutant of the human 4-1BB extracellular domain, expressed on transduced 300-19 cells
T10 chain: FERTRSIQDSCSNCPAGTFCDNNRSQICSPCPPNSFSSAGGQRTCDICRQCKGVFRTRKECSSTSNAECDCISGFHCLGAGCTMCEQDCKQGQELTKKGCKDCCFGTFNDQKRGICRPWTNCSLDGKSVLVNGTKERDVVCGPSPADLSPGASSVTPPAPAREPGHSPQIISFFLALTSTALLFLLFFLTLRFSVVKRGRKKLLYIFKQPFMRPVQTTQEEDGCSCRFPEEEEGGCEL

Hu41BB N&E.4 = target: T11, Hu41BB N&E.4 (human, UniProt Q07011 18-255); test: as above
T11 construct: Human-to-dog mutant of the human 4-1BB extracellular domain, expressed on transduced 300-19 cells
T11 chain: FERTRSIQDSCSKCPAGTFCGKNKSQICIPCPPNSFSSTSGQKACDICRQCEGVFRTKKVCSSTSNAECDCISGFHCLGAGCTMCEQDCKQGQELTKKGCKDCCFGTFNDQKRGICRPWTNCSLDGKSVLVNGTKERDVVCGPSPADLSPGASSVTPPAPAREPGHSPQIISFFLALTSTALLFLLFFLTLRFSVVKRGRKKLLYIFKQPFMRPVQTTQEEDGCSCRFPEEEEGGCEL

[9] = target: T12, human 4-1BB extracellular portion, amino acids 24-186 (Fc cleaved off with Factor Xa) (human, UniProt Q07011 24-186); test: SPR (Biacore 3000), antibody amine-coupled, 4-1BB 24-186 as analyte, 25 C
T12 construct: Made from the R&D Systems 4-1BB/Fc chimera by Factor Xa cleavage; also called recombinant human 4-1BB; the 4-1BB

T2 sequence (P25942 21-277 limits assumed): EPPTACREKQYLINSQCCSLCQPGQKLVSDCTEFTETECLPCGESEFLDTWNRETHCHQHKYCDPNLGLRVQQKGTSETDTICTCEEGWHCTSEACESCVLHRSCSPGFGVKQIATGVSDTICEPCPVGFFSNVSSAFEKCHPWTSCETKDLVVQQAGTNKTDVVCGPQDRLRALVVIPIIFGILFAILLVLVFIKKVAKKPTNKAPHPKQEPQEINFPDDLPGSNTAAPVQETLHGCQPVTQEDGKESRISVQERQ

- binding result (CD40 on 300.19 cells): no binding (tested: 1000 nM)
- binding result (OX-40 on 300.19 cells): no binding (tested: 1000 nM)
- binding result (Hu41BB N&E.3): binds
B3: MOR-6032 (IgG1) (antibody, V domains shown)
VH: QVQLVQSGAEVKKPGSSVKVSCKASGGTFNSYAISWVRQAPGQGLEWMGGIIPGFGTANYAQKFQGRVTITADESTSTAYMELSSLRSEDTAVYYCARKNEEDGGFDHWGQGTLVTVSS
VL: DIELTQPPSVSVAPGQTARISCSGDNLGDYYASWYQQKPGQAPVLVIYDDSNRPSGIPERFSGSNSGNTATLTISGTQAEDEADYYCQTWDGTLHFVFGGGTKLTVL
notes: Human IgG1 format, lambda light chain; also called 6032_G1

- binding result (CD40 on 300.19 cells): no binding (tested: 1000 nM)
- binding result (OX-40 on 300.19 cells): no binding (tested: 1000 nM)
- binding result (Hu41BB N&E.3): binds
- binding result (Hu41BB N&E.4): binds
B4: MOR-7483 (IgG1) (antibody, V domains shown)
VH: QVQLVQSGAEVKKPGESLKISCKGSGYSFSTYWISWVRQMPGKGLEWMGKIYPGDSYTNYSPSFQGQVTISADKSISTAYLQWSSLKASDTAMYYCARGYGIFDYWGQGTLVTVSS
VL: DIELTQPPSVSVAPGQTARISCSGDNIGDQYAHWYQQKPGQAPVVVIYQDKNRPSGIPERFSGSNSGNTATLTISGTQAEDEADYYCSTYTFVGFTTVFGGGTKLTVL
notes: Human IgG1 format, lambda light chain; also called 7483_G1

- binding result (Hu41BB N&E.3): binds
- binding result (Hu41BB N&E.4): binds
B7: MOR-7483 (IgG2) (antibody, V domains shown)
VH: B4 VH
VL: DIELTQPPSVSVAPGQTARISCSGDNIGDQYAHWYQQKPGQAPVVVIYQDKNRPSGIPERFSGSNSGNTATLTISGTQAEDEADYYCSTYTFVGFTTVFGGGTKLTVLG
notes: also called 7483_G2

Second part, the binder before the results:

B1: MOR-7361 (IgG1) (antibody, V domains shown)
VH: QVQLVESGGGLVQPGGSLRLSCAASGFTFSDYYMHWVRQAPGKGLEWVSVISGSGSNTYYADSVKGRFTISRDNSKNTLYLQMNSLRAEDTAVYYCARLYAQFEGDFWGQGTLVTVSS
VL: DIELTQPPSVSVAPGQTARISCSGDNIGSKYVSWYQQKPGQAPVLVIYSDSERPSGIPERFSGSNSGNTATLTISGTQAEDEADYYCQSWDGSISRVFGGGTKLTVL
notes: Human IgG1 format, lambda light chain; also called 7361_G1
- fold selectivity for 4-1BB versus OX-40 and CD40 (human 4-1BB on cells [1]): ≥ 100 fold
- binding result (CD40 on 300.19 cells): no binding (tested: 1000 nM)
- binding result (OX-40 on 300.19 cells): no binding (tested: 1000 nM)
- EC50 [2]: 0.091 nM
- EC50 [3]: 0.3 nM
- EC50 (human 4-1BB on cells [4]): 0.8 nM
- binding result (Hu41BB N&E): binds
- binding result (Hu41BB N&E.1): binds
- binding result (Hu41BB N&E.5): binds
- binding result (Hu41BB N&E.6): binds
- % max inhibition [5]: 100%
- IC50 [5]: 0.172 nM

B2: Fab-7361 (Fab, V domains shown)
VH: B1 VH
VL: B1 VL
- EC50 [6]: 0.6 nM
- EC50 (human 4-1BB on cells [7]): 105 nM
- Kd [8]: 118 nM

B5: MOR-7480.2 (IgG1) (antibody, V domains shown)
VH: B4 VH with Q1E, K19R
VL: SYELTQPPSVSVSPGQTASITCSGDNIGDQYAHWYQQKPGQSPVVVIYQDKNRPSGIPERFSGSNSGNTATLTISGTQAMDEADYYCATYTGFGSLAVFGGGTKLTVL
notes: Human IgG1 format
- binding result (Hu41BB N&E.3): binds
- binding result (Hu41BB N&E.4): binds

B6: MOR-7480 (IgG2) (antibody, V domains shown)
VH: B4 VH
VL: B7 VL with S88A, F92G, V93F, F95S, T96L, T97A
- EC50 [2]: 0.122 nM
- Kd [9]: 0.57 nM
- koff [9]: 0.00023 s⁻¹
- kon [9]: 450000 M⁻¹ s⁻¹
- t1/2 [9]: 50 min
- % max inhibition [5]: 98%
- IC50 [5]: 0.125 nM

B8: MOR-7483.1 (IgG1) (antibody, V domains shown)
VH: B4 VH with Q1E, K19R
VL: B5 VL with V45L, A88S, G92F, F93V, S95F, L96T, A97T
notes: Germlined version of MOR-7483, human IgG1 format
- Kd [9]: 28 nM
- koff [9]: 0.022 s⁻¹
- kon [9]: 800000 M⁻¹ s⁻¹

Source: patent US20180194851A1 (Pfizer, published 2018)
